Patent publication US20220143204A1 (LINXIS B V, published 2022)
Numbering of substitutions follows the chain as printed.

Key:
[1] = target: T1, human PDGFRB extracellular domain (human, UniProt P09619 33-532); experiment: binding assay on immobilised human PDGFRB ectodomain, apparent affinity (Example 4)
T1 construct: extracellular domain; also called hPDGFRB-ECD; human PDGFRB ectodomain

[2] = target: T2, rat PDGFRB extracellular domain (rat, UniProt Q05030 32-531); experiment: binding assay on immobilised rat PDGFRB ectodomain, apparent affinity (Example 4)
T2 construct: extracellular domain; also called rPDGFRB-ECD; rat PDGFRB ectodomain
T2 sequence (looked up): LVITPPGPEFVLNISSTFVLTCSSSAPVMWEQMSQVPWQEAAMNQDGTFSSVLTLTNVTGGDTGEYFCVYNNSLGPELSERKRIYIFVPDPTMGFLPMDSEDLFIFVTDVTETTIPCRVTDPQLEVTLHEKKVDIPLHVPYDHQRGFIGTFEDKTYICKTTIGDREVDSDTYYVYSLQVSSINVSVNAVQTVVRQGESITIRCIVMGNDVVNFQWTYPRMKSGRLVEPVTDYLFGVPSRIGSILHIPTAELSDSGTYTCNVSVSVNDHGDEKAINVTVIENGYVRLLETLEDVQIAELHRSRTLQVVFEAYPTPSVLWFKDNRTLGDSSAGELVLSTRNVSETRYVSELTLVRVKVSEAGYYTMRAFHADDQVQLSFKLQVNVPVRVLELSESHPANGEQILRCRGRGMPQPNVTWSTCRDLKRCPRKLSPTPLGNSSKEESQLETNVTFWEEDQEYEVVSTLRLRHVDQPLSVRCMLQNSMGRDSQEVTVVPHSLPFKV

[3] = target: T3, human PDGFRB on LX-2 cells (human, UniProt P09619); experiment: binding assay on the human hepatic stellate cell line LX-2 (Example 4)
T3 construct: full-length receptor on the cell surface; The list has human PDGFRB only on SCC VII cells
T3 sequence (P09619 33-1106 limits assumed): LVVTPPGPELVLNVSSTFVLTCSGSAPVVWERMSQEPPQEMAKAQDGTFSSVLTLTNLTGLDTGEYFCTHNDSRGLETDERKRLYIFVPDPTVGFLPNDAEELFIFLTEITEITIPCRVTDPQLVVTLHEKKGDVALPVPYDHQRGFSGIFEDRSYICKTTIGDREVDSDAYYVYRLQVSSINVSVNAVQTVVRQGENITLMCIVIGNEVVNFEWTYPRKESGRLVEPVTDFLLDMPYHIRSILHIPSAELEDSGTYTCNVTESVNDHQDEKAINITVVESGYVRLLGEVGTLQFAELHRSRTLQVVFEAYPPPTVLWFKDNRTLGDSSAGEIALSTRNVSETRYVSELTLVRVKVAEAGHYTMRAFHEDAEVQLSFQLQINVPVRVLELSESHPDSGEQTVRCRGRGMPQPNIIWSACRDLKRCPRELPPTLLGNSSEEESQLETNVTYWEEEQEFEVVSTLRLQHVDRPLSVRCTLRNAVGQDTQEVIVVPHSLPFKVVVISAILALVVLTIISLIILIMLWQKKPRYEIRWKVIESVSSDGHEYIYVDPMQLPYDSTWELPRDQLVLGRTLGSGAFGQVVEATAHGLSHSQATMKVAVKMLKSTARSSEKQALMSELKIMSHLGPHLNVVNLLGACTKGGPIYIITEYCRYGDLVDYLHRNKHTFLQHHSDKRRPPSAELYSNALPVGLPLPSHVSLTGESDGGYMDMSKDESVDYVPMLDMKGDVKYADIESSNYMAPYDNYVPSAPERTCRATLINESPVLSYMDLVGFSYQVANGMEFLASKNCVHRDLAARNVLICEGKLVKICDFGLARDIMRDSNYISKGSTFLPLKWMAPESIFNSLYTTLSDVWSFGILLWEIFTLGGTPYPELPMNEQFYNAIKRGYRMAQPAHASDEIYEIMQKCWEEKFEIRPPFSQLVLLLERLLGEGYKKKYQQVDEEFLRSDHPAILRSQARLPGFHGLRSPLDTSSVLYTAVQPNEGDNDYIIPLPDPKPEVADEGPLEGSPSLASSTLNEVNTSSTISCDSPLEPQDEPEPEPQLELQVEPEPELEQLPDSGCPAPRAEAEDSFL

[4] = target: T4, human PDGFRB on SCC VII cells (human, UniProt P09619 33-1106); experiment: binding assay on SCC VII cells transfected with human PDGFRB (Example 4)
T4 construct: whole, on cells; also called hPDGFRB; SCC-hPDGFRB
T4 sequence (P09619 33-1106): as the sequence (P09619 33-1106 limits assumed) above

[5] = target: T5, rat PDGFRB on SCC VII cells (rat, UniProt Q05030 32-1097); experiment: binding assay on SCC VII cells transfected with rat PDGFRB (Example 4)
T5 construct: whole, on cells; also called rPDGFRB; SCC-rPDGFRB

T1 sequence (P09619 33-532): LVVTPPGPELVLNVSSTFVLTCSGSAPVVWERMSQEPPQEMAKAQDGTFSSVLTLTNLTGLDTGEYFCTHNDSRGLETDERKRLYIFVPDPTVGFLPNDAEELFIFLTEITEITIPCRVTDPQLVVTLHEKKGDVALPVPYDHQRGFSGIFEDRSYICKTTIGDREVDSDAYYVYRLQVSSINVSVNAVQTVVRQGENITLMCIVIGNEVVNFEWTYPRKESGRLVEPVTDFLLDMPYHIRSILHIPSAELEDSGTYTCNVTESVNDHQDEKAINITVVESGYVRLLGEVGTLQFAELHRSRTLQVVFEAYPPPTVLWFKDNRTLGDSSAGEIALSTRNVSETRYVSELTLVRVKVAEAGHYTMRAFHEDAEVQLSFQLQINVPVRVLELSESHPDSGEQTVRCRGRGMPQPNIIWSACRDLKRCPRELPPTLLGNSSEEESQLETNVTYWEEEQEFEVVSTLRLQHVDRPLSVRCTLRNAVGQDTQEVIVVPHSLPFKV

B1: SP23P (VHH)
VHH: EVQLVESGGELVQAGGSLRLSCAVSGRTLTSYPMGWFRQAPGKEREFVAAISWSGGDTMYADSVKGRFTISRDNSKNTVYLQMNSLKPEDTADYYCARRRYSSGISRHLVDYEYWGQGTQVTVSS
notes: Llama VHH; on phage in the phage ELISA
B1: binds [1].

B2: SP35P (VHH)
VHH: EVQLVESGGGLVQPGGSLRLSCAASGSLGSNNPMAWYRQAPGKERELVASISSAYRTHYADFVKGRFTISRDSPKNTVSLQMNNLKPEDTAVYYCGIFVSARNYWGKGTQVTVSS
notes: as for B1
B2: binds [2].

B3: SP05P (VHH)
VHH: EVQLVESGGGLVQAGGSLRLSCAASGRTSFSGYAMAWFRQAPGKERDFVASITWSYGYTYYTDSAQGRFTISRDSAKNTVYLEMNSLKPEDTAVYYCAADPKASRFRILREYAYWGQGTQVTVSS
notes: as for B1
With B3 the Kd [3] was 193 nM, the Kd [4] was 1.4 nM and the Kd [1] was 9.2 nM.

B4: SP01P (VHH)
VHH: EVQLVESGGGLAQAGGSLRLSCVASGNIDSANGMAWYRQAPGKQRELVAHITSGTSYYVASVEGRFTISRANAKDTWYLQMNSLKPEDTGVYYCFPIGLSAHWSQGTQVTVSS
notes: as for B1
B4 gave a Kd [4] of 7.8 nM and a Kd [1] of 20.4 nM.

B5: SP10P (VHH)
VHH: EVQLVESGGGLVQAGGSLRLSCAASGRTFNGYAMGWFRQAPGKERDFVAAITWSYGYTHYAESVKGRFSISRDSANNMVYLEMNSLKPEDTAVYYCAADPKASRFRTLRRYDYWGQGTQVTVSS
notes: as for B1
B5 was tested, and the Kd [4] was 0.9 nM.

B6: SP32P (VHH)
VHH: EVQLVESGGGTVQAGDSLRLSCTASGRTFSTYTMGWFRQAPGKERVVVAVNTWNNFTVHQPSVKGRFTMSRDNTKNSIYLQMDSLKPEDTAVYYCAASAKGTARYDYWGQGTQVTVSS
notes: as for B1
B6: binds [2].

B7: SP14P (VHH)
VHH: EVQLVESGGGLVQAGDSLRLSCVVSGLTFSRYGMGWFRQATGKEREFVGGISVGSSGTMYPNSVKGRFTISRDNAKSTVYLQMNSLKPEDTAVYFCAAIDQGSFVQQRDYRYWGQGTQVTVSS
notes: as for B1
Work on B7 yielded a Kd [3] of 3.1 nM, a Kd [4] of 0.6 nM and a Kd [1] of 8.6 nM.

B8: SP17P (VHH)
VHH: EVQLVESGGGLVQPGGSLRLSCAASGLTFVNYAMGWFRQAPGKERELVAGIASSGRIYYADSVAGRFTISRDNARNTVNLQMNSMKPEDTAVYYCAGRRSFSSTSAADYNYWGQGTQVTVSS
notes: as for B1
B8: binds [1].

B9: SP07P (VHH)
VHH: EVQLVESGGGSVQTGGSLRLSCAASGRSFSTYAMAWFRQAPGKEREFVAAINRRATDTVYADSAKGRFIISRDNDKNTVYLQMDSLKTEDTAVYYCAAAKNAYDWRWDRLRDRDYWGQRGQGTQVTVSS
notes: as for B1
B9 gave a Kd [4] of 62.3 nM and a Kd [1] of 10.1 nM.

B10: SP29P (VHH)
VHH: EVQLVESGGGLVQAGDSLRLSCTVSGRTFNTYVTGWFRQAPGKEREFVAAIHQIGSTYYRNSVKGRFTISRDGAKDTVYLQMNNLKPEDSAVYYCAAGNGGYVMSDIAYGTWGQGTQVTVSS
notes: as for B1
B10: binds [2].

B11: SP21P (VHH)
VHH: EVQLVESGGGLVQPGGSLRLSCVVSGSSFSSYTMGWFRRAPGKQRELVAGVSTVGDTAAADSVKGRFTISRDNAKNTVYLQMNSLKPEDTAVYYCNTYPHAYLEWGQGTQVTVSS
notes: as for B1
B11: binds [1].

B12: SP36P (VHH)
VHH: EVQLVESGGGLVQAGGSLRLSCTPSITTAGTTIMAWFRQAPGNEREFVAAIWGSKTAYGDSMKGRLTISRDNVRDNGQKTVFLQMNNLQLQDTATYYCAASSGGYVHSSTSYEIWGRGTQVTVSS
notes: as for B1
Binder B12 has a Kd [5] of 76.6 nM and a Kd [2] of 31 nM.

B13: SP31P (VHH)
VHH: EVQLVESGGGLVQAGGSLRLSCAASRGTFGTYIMGWFRQAPGKEREFVAAISWRGANTYYGYSVKGRFTISRDNAKNTMYLQMADLKPEDTADYYCGVHLNGTPYYYASGYRYWGQGTQVTVSS
notes: as for B1
For B13, the Kd [5] was 31.8 nM and the Kd [2] was 276 nM.

B14: SP30P (VHH)
VHH: B13 VHH with Y32D
notes: as for B1
B14 was tested, and the Kd [2] was 12.2 nM.

B15: SP13P (VHH)
VHH: EVQLVESGGGLVQPGGSLRLSCAASESIFSINYMAWYRQAPGKQRELVAFSIDGSSTNYVDSVRGRFTASRDNAENTLYLQMNSLKPEDTAVYYCYAQGNTWAAGVWGQGTQVTVSS
notes: as for B1
For B15, the Kd [4] was 10.4 nM and the Kd [1] was 9.3 nM.

B16: SP15P (VHH)
VHH: EVQLVESGGGLVQAGGSLRLSCAASGRAFGGPYMAWFRQTPGKGREFVAAISPSSVYTFYQDSVKGRFTISRDNTKNTAYLQMNSLKPEDTAVYYCAAEAAGEVRLETSYKYWGQGTQVTVSS
notes: as for B1
B16: binds [1].

B17: SP27P (VHH)
VHH: EVQLVESGGGLVQIGDSLRLSCAASGGTFNRYGMGWFRQAPGKEREFVAAIRWDGVDTNYADFVKGRFTISRYNAKNTAYLQMNSLKPEDTAVYYCAADRRGLYTKHAHRYDYWGQGTQVTVSS
notes: as for B1
B17 showed a Kd [2] of 25.5 nM.

B18: SP25P (VHH)
VHH: EVQLVESGGGLVQPGGSLRLSCAASESIFSINAMGWYRQTPGKQREMVASITPGGFTIYADSVKGRFTISRDNAKNTLYLQMNNLRFEDTAVYYCNAFAGSATSYHDFGSWGQGTQVTVSS
notes: as for B1
B18: binds [2].

B19: SP12P (VHH)
VHH: EVQLVESGGGLVQAGGSLRLSCVISGRTSPTYPMGWFRQSPGNEREFVASINWSGGWRNYADSVKGRFTISRDDAKNTVYLQMNSLKPEDTAVYYCARGQYSSGTPVYAHEYAYWGQGTQVTVSS
notes: as for B1
With B19 the Kd [3] was 0.6 nM and the Kd [4] was 0.3 nM.

B20: SP20P (VHH)
VHH: B19 VHH with G66D
notes: as for B1
With B20 the Kd [3] was 53.6 nM, the Kd [4] was 1 nM and the Kd [1] was 3.8 nM.

B21: SP11P (VHH)
VHH: EVQLVESGGGLVQAGDSLRLSCAASGRTFSSYPIAWFRQAPGKEREFVAAITSSGLTTYYANVVKGRFAISRDNAKDTVYLQMNSLKPEDTAVHYCATSNGFLSGRDIYQHNKYIYWGQGTQVTVSS
notes: as for B1
B21: binds [1].

B22: SP08P (VHH)
VHH: EVQLVESGGGLVQAGGSLRLSCAASGRTFNGYAMAWFRQAPGKERDFVASITWSYGYTYYADSAQGRFTISRDSAKNTVYLEMNSLKPEDTAVYYCAADPKASRFRILRQYAHWGQGTQVTVSS
notes: as for B1
With B22 the Kd [3] was 60.2 nM and the Kd [4] was 0.5 nM.
